Experimental data reported in PMC8026907.

T1: CRP-MTB (cAMP receptor protein, wild type) (Mycobacterium tuberculosis, UniProt P9WMH3 1-224)
T1 sequence: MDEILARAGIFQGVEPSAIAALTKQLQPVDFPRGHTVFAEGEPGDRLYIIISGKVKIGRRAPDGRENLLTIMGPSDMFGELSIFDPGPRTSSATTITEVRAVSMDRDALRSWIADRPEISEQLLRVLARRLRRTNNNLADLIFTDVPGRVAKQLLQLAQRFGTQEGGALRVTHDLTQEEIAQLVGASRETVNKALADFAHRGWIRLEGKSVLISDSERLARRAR

B1: SerC promoter 32-bp, fluorescein (dsDNA)
DNA 1: GCGCGTAGTGTGAACAAGCTCACATGCAAGCC
DNA 2: GGCTTGCATGTGAGCTTGTTCACACTACGCGC
B2: SerC promoter 20-bp, fluorescein (dsDNA)
DNA 1: AGTGTGAACAAGCTCACATG
DNA 2: CATGTGAGCTTGTTCACACT

Key:
Conditions in all cases: protein: recombinant; tags: His-tag (pET-3a); chain copies: 2; blunt
[1] = biological target: T1, CRP-MTB (cAMP receptor protein, wild …); test: fluorescence anisotropy; no cAMP (apo)
[2] = biological target: T1, CRP-MTB (cAMP receptor protein, wild …); test: fluorescence anisotropy; 1 mM cAMP
[3] = biological target: T1, CRP-MTB (cAMP receptor protein, wild …); test: fluorescence anisotropy; 0.1 mM cAMP

Binder | Ka [1] | Ka [2] | Ka [3]
B1 | 2.3 ± 0.9 1e8 M-1 | 4.2 ± 1.7 1e8 M-1 | 4.5 ± 1.2 1e8 M-1
B2 | 0.12 ± 0.02 1e8 M-1 | 0.5 ± 0.1 1e8 M-1 | –
